Reference: US20210079110A1 (SCHOOL JURIDICAL PERSON THE KITASATO INSTITUTE, published 2021)

How the values were obtained:
[1] = biological target: T1, peptide having the amino acid sequence set forth in SEQ ID NO: 1; assay: ELISA on immobilized peptide (Experimental Example 2) and absorption operation (Experimental Example 4)
T1 construct: Immunogen; immobilized on a 96-well plate in the ELISA and used for the absorption operation at 0.05 mg/mL; also called immunized peptide; peptide used for the immunization of the mouse
T1 peptide: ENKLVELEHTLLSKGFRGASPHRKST
Procedure: Reactivity of a monoclonal antibody was confirmed by an ELISA method using an immunized peptide as an antigen. Specifically, first, the peptide having the amino acid sequence set forth in SEQ ID NO: 1 was immobilized on a 96-well plate. Moreover, as a control, a 96-well plate in which only blocking was performed without immobilizing the peptide was used. A skim milk solution was used for the blocking.
Subsequently, the 96-well plate was blocked, a culture supernatant of each established hybridoma cell line was added thereto, and a reaction was performed. Moreover, for comparison, wells reacted with a normal mouse serum were also prepared. Next, the unreacted monoclonal antibody was washed off, the resultant was reacted with an anti-mouse secondary antibody, and a chromogenic substrate was added to develop color. Then, absorbance of each well was measured using a plate reader.
For the absorption operation of the monoclonal antibody, the peptide having the amino acid sequence set forth in SEQ ID NO: 1 was used at a final concentration of 0.05 mg/mL. Moreover, the absorption operation was performed overnight at 4° C. [0090] (a) to (d) of FIG. 3 are photographs showing results of immunohistochemical staining. In each case, a magnification was 200 times. […]

[2] = biological target: T2, Kitakyushu lung cancer antigen-1 (KK-LC-1) protein (human (tissue slices of patients), UniProt Q5H943 1-113); assay: immunohistochemical staining of formaldehyde-fixed tissue slices
T2 construct: Endogenous protein in formaldehyde-fixed tissue slices (testis, seminoma, gastric tissue) stained by immunohistochemistry; also called NP_001017978.1
T2 sequence: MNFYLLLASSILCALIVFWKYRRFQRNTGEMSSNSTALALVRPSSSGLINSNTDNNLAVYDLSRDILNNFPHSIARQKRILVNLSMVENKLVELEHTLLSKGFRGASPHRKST
Excerpt: Tissue slices of a normal region and a tumor region of a patient suffering from a testicular tumor and tissue slices of a normal region and a tumor region in a gastric tissue of a patient suffering from a gastric cancer, which are fixed with formaldehyde, were stained by using the produced monoclonal antibodies.

[3] = biological target: T3, VELEHTLLSKGFRGA (SEQ ID NO: 71); assay: peptide array of 15-mers, antibody diluted to 1/100 and 1/500
T3 construct: 15-residue KK-LC-1 peptide of the peptide array
T3 peptide: VELEHTLLSKGFRGA
Excerpt: (§1) An antigen of the monoclonal antibody produced by the hybridoma cell line (accession number: NITE BP-02527) was identified by epitope mapping. Specifically, first, 73 types of 15-amino acid residue peptides in which a position on an N-terminus side was shifted by one amino acid residue each were synthesized based on the amino acid sequence of the KK-LC-1 protein to produce a peptide array. Amino acid sequences of the 73 types of peptides are shown in SEQ ID NOs: 13 to 85, respectively.
(§2) Subsequently, the peptide array was reacted with a monoclonal antibody to identify peptides having reactivity. The monoclonal antibody was diluted to 1/100 and 1/500 and the resultants were each reacted.

SEQ ID NO 65 = biological target: T4, SEQ ID NO 65; assay: as above
T4 construct: 15-residue KK-LC-1 peptide of the peptide array
T4 peptide: MVENKLVELEHTLLS
Excerpt: as §1, §2

[4] = biological target: T5, LSMVENKLVELEHTL (SEQ ID NO: 63); assay: as above
T5 construct: 15-residue KK-LC-1 peptide of the peptide array
T5 peptide: LSMVENKLVELEHTL
Excerpt: as §1, §2

SEQ ID NO 69 = biological target: T6, SEQ ID NO 69; assay: as above
T6 construct: 15-residue KK-LC-1 peptide of the peptide array
T6 peptide: KLVELEHTLLSKGFR
Excerpt: as §1, §2

SEQ ID NO 66 = biological target: T7, SEQ ID NO 66; assay: as above
T7 construct: 15-residue KK-LC-1 peptide of the peptide array
T7 peptide: VENKLVELEHTLLSK
Excerpt: as §1, §2

SEQ ID NO 68 = biological target: T8, SEQ ID NO 68; assay: as above
T8 construct: 15-residue KK-LC-1 peptide of the peptide array
T8 peptide: NKLVELEHTLLSKGF
Excerpt: as §1, §2

SEQ ID NO 70 = biological target: T9, SEQ ID NO 70; assay: as above
T9 construct: 15-residue KK-LC-1 peptide of the peptide array
T9 peptide: LVELEHTLLSKGFRG
Excerpt: as §1, §2

SEQ ID NO 64 = biological target: T10, SEQ ID NO 64; assay: as above
T10 construct: 15-residue KK-LC-1 peptide of the peptide array
T10 peptide: SMVENKLVELEHTLL
Excerpt: as §1, §2

SEQ ID NO 67 = biological target: T11, SEQ ID NO 67; assay: as above
T11 construct: 15-residue KK-LC-1 peptide of the peptide array
T11 peptide: ENKLVELEHTLLSKG
Excerpt: as §1, §2

Measured: binding result

B1: monoclonal antibody produced by the hybridoma cell line having an accession number of NITE BP-02527 (antibody, V domains shown)
VH: EVQLQQSGPELVKPGASVKMSCKTSGYTSTEYTMHWVKQSHGQSLEWIGVIYPNNGDTSYNQKFRGKATLTVDKSSNTAYMELRSLTSEDSAVYYCARLGWQGFANWGQGTLVTVSA
VL: DIVMTQAAPSVPVTPGESVSISCRSSKSLLHSNGNTFLYWFLQRPGQSPQLLIYRMSNLASGVPDRFSGSGSGTAFTLRISRVEAEDVGVYYCMQHLEYPLTFGAGTKLELK
notes: Mouse hybridoma antibody, used as culture supernatant; also called 34B3; 277 34B3 20170123
binds: all assays above
